Experimental data as given in publication PMC2742444.

Experiments:
VAV2 = VAV2 (UniProt P52735); assay: anti-FLAG IP, SRM mass spectrometry; details: reference: wild type, no EGF
SOS1 = SOS1 (UniProt Q07889); assay: anti-FLAG IP, SRM mass spectrometry; details: reference: wild type, no EGF

- fold change (VAV2): 1.4 fold
- fold change (SOS1): 1.91 fold
Substance: EGFR (chimeric EGFR-FLAG-GFP) (from UniProt P00533) wild type, EGF 15 min
